Assay results: patent US20260258115A1

B1: ADI-41188 (antibody, V domains shown)
VH: QVQLQQWGAGLLKSSETLSLTCAVYGGSFSGYYWSWIRQSPGKGLEWIGEINHSGSANYNPSLKNRVTISRDTSKNQFSLWLSSVTAADTAVYYCARTSRSPEPDNYYYYMDVWGRGTTVTVSS
VL: QSVLTQPPSVSGAPGQRVSISCTGSSSDIGAGYDVHWYQQFPGTAPKLLMYANNNRPSGVPDRFSGSRSGTSASLAITGLQAEDEADYYCQSYDSNLDVVVFGGGTKLTVL
B2: ADI-41165 (antibody, V domains shown)
VH: EVQLVETGAEVKKPGESLKISCKGSGYSFTSYWIGWVRQMPGKGLEWMGIIYPGDSDTRYSPSFQGQVTISADKSISTAYLQWSSLKASDTAMYYCARRYDYIDIWGQGTMVTVSS
VL: DIRVTQSPSSLSASVGDRVTITCQASQDISNYLNWYQQKPGKAPKLLIYDASNLETGVPSRFSGSGSGTDFTFTISSLQPEDIATYYCQQYDNLAHITFGPGTKVEIK
B3: ADI-36681 (antibody, V domains shown)
VH: EVQLVESGAEVKKPGESLKISCKASGYSFTRYWIGWVRQMPGKGLEWMGIIFPGDSDTRYCPSFEGQVTISADRSINTAYLQWSSLKASDSAMYYCVTLYTDYDYGAPDHWGQGTLVTVSS
VL: DIVLTQSPATLSVSPGERATLSCRASQSLSGDLAWYQQKPGQAPRLLIYATSTRATGIPARFSGSGSGAEFTLTISSLQSEDFAVYYCQQYYDWPLLTFGPGTKVEIK
B4: ADI-41193 (antibody, V domains shown)
VH: EVQLVESGGGLVKPGMSLRLSCAASGFRFSDHYMNWIRQAPGKGLEWVSYISSSSTYTDYTDSVKGRFTISRDNSKNSVYLQMNSLRAEDTAIYYCARVAPIRHNGDYIDYWGQGTTVTVSS
VL: NFMLTQPPSASGTPGQRVTISCTGSSSNIGAGYDVHZYQQIPGTAPKLLIYGNNNRPSGVPDRFSGSKSGTSASLAITGLQTEDEADYYCQSYDRGLSGRVFGTGTKVTVL
B5: ADI-41198 (antibody, V domains shown)
VH: EVQLVQSGGVVIQPGGSLRLSCAASGFSFDEYLMHWVRQLPGKGLEWVALISWHGDITYYADSVKGRFTISRDNSRYSLYLQMNSLRSDDTALYYCVKDGWIEGAFNHTFGIGYYFENWGQGTLVTVSS
VL: DIVLTQTPSSLSASVGDRVTITCQASQDINNCLNWYQQKPGKAPEVLIFDASNLETGVPLRFSGSGSGTHFTLTISSLQPEDIATYYCQQHENVPLTFGGGTKVEIK
B6: ADI-41157 (antibody, V domains shown)
VH: EVQLVESGPGLVKPSETLSLTCTVSGGSISTYYWSWIRQPPGKGLEWIGYIYYTGSTNYNPSLKSRVTISLDTSKNQFSLKLSSVSAADTAFYYCARSPPVPGTRSWFDPWGQGTLVTVSS
VL: SPGLTQPQSAFGTPGQRVTISCFGSSSNIGRNHIYWYQQVPGTAPKLLIYRNNQRPSGVPDRFFGSKFGTSASLAISGVRSEDEADYFCAAWDDSLSGPVFGGGTKLTVL
B7: ADI-36671 (antibody, V domains shown)
VH: EVQLLESGGGLVKPGGSLRLSCAASGFTFSGYYMTWIRQAPEKGLEWVSYISGGSTYTNYADSVRGRFTISRDNARNSLYLQMNSLRAEDTAVYYCARDGGYGIGPLYWGQGSLVTVSS
VL: QPVLTQPPSVSGAPGQRVTISCTGSSSNIGAPFDVHWYQQLPGTAPKPLIYGNSNRPSGVPDRFSGSKSGTSASLAITGLQAEDEADYYCQSYDSSLGGYVFGTGTKLTVL
B8: ADI-41204 (antibody, V domains shown)
VH: EVQLLESGGGLVKPGGSLRLSCAASGFTFSSYSMNWVRQAPGKGLEWVSSISAGSSYIYYADSVKGRFTISRDNAKNSLYLQMNSLRAEDTAVYYCARVPSYETTPYFDYWGQGTLVTVSS
VL: QSVLTQPPSVSGAPGQRVTISCTGSSSNIGSGYDLHWYQQLPGTAPKLLIYVNSNRPSGVPDRFSGSKSGTSASLAITGLQAEDEADYYCQSYDSSLSGYVFGTGTKVTVL
B9: ADI-36679 (antibody, V domains shown)
VH: QVQLVQSGAEVKKPGESLKISCKGSGYSFRSYWIAWVRQMPGKGLEWMGTIFPGDSDVTYSPSFQGQVTISVDKSTSTAYLQWGSLKASDTAIYYCARRYDYIDFWGQGTLVTVSS
VL: DIQMTQSPSSLSASVGDRVTITCQASQDIINHLNWYQQKPGKAPKLLIYDASNLHPGVPSRFSGSGSGTYFTFTISSLQPDDFATYYCQQYDFLAHITFGPGTKVDIK
B10: ADI-41199 (antibody, V domains shown)
VH: QVQLVESGGGLVKPGGSLRLSCGASGFTFPDYYMSWIRQAPGKGLEWLSYISSSSSFTDYADSVKGRFTISRDNAKKSLYLQMNSLRAEDTAVYYCARVRADYVGNSRIHFDYWGQGTLVTVSS
VL: DIVMTQSPVTLSVSPGERATLSCRASQSLNGYLAWYQQKPGQAPRLLIYGASTRATEPGWDTSGRGSGTEFTLTISSLQSEDFAVYYCQQYNDWPFTFGQGTRLEIK
B11: ADI-41180 (antibody, V domains shown)
VH: EVQLVQSGGGLVKPGGSLRLSCAASGFTFIDYYMSWIRQAPGKGLEWVSSISGGSTYTTYADSVKGRFTISRDNGKNSLYLQMDSLRAEDTAVYYCARLGGYSYYMDVWGKGTTVTVSS
VL: QPVLTQPPSVSGAPGQRVTISCTGSSSNIGAGYDVHWYQHLPGAAPKLLIYDNTNRPSGIPDRFSGSKSGTSASLAITGLQAEDEADYYCQSYDSSLDWVFGGGTKVTVL
B12: ADI-36680 (antibody, V domains shown)
VH: QVTLKESGAELRKPGESLKISCKASGYRFTNYWIGWVRQMPGKGLEWMGVIYPGDSDTKYSPSFQGQVTMSADKSINTAYLQWSSLKASDTAIYYCVSLFGDYDYGALDYWGQGTLVTVSS
VL: ETTLTQSPATLSMSPGERATLSCRASQSVGRNLAWYQQKPGQAPRLLIYGASIRATGILARFSGSGSGTEYTLTISSLQPEDFAVYYCQQYHDWPSFTFGPGTKVDIK
B13: ADI-41168 (antibody, V domains shown)
VH: EVQLVETGGGVVQPGRSLRLSCAASGFTFSSYGMHWVRQAPGKGLEWVAVISYDGSNKYYADSVKGRFTISRDNSKNTLYLQMNSLRTEDTAVYYCAKGGGYYYYYMDVWGKGTTVTVSS
VL: QPVLTQPASVSGSPGQSITISCTGTSSDVGGYNYVSWYQQHPGKAPKLMIYGVNNRPSGVSNRFSGSKSGNTASLTISGLQGEDEADYYCNSYRSGITVVFGGGTKLTVL
B14: ADI-41147 (antibody, V domains shown)
VH: EVQLVESGGGLVKPGGSLRLSCAASGFTLSGYYMSWVRQAPGKGLEWISYISGGSTYTNYADSVNGRFTISRDNAKNSLYLQMDSLRAEDTAVYYCARLEYGDYGPYYLGLWGRGTLVTVSS
VL: QSVLTQPPSVSGAPGQRVTISCTGTSSNIGAGYDVHWYQKLPGTAPKLLIYANNNRPSGVPDRFSGSKSGTSASLAITGLQAEDEADYYCQSYDTSLSAHYVFGTGTKLTVL

Columns and labels:
[1] = molecular target: Respiratory Syncytial Virus fusion glycoprotein (RSV F) on RSV-A2 virus (Respiratory Syncytial Virus subtype A (RSV-A2)); test: cell-based or functional assay
[2] = molecular target: RSV prefusion F (preF), DS-Cav1 (Respiratory Syncytial Virus); test: BLI, IgG on anti-human IgG sensor, 100 nM antigen

Binder	Neutralization IC50 (RSV subtype A) [1] [µg/mL]	Kd [2] [nM]
B1	0.15	0.224
B2	> 25	2.4
B3	0.01	1.2
B4	0.07	0.74
B5	0.32	0.756
B6	0.22	0.507
B7	0.01	0.728
B8	0.06	0.545
B9	0.01	0.878
B10	0.23	1.73
B11	0.07	0.47
B12	0.01	0.719
B13	> 25	133
B14	0.06	0.467
